Assay results from paper PMC2914686.

Substrate: C[S+](CC[C@H](N)C(=O)[O-])C[C@H]1O[C@@H](n2cnc3c(N)ncnc32)[C@H](O)[C@@H]1O
Assay: Michaelis-Menten kinetics
Format: biochemical, Homo sapiens

B1: G9a (Homo sapiens) (protein)
chain: NRAIRTEKIICRDVARGYENVPIPCVNGVDGEPCPEDYKYISENCETSTMNIDRNITHLQHCTCVDDCSSSNCLCGQLSIRCWYDKDGRLLQEFNKIEPPLIFECNQACSCWRNCKNRVVQSGIKVRLQLYRTAKMGWGVRALQTIPQGTFICEYVGELISDAEADVREDDSYLFDLDNKDGEVYCIDARYYGNISRFINHLCDPNIIPVRVFMLHQDLRFPRIAFFSSRDIRTGEELGFDYGDRFWDIKSKYFTCQCGSEKCKHSAEAIALEQSRLARLD
  Km: 31.7 µM
